# Measured values taken from patent US11653679B2, “High-purity steviol glycosides” (PureCircle Sdn Bhd, priority 2014, dated 2023).
# Residue numbers refer to the chain shown, from its start.
# B1: UGT76G1var47: UGT76G1 variant, mutations E229A_T284I_S389E (protein, UniProt Q6VAB4 1-458, looked up, variant E229A T284I S389E)
# UDP-glycosyltransferase 76G1: MENKTETTVRRRRRIILFPVPFQGHINPILQLANVLYSKGFSITIFHTNFNKPKTSNYPHFTFRFILDNDPQDERISNLPTHGPLAGMRIPIINEHGADELRRELELLMLASEEDEEVSCLITDALWYFAQSVADSLNLRRLVLMTSSLFNFHAHVSLPQFDELGYLDPDDKTRLEEQASGFPMLKVKDIKSAYSNWQILKEILGKMIKQTKASSGVIWNSFKELEESALETVIREIPAPSFLIPLPKHLTASSSSLLDHDRTVFQWLDQQPPSSVLYVSFGSISEVDEKDFLEIARGLVDSKQSFLWVVRPGFVKGSTWVEPLPDGFLGERGRIVKWVPQQEVLAHGAIGAFWTHSGWNSTLESVCEGVPMIFSDFGLDQPLNARYMEDVLKVGVYLENGWERGEIANAIRRVMVDEEGEYIRQNARVLKQKADVSLMKGGSSYESLESLVSYISSL
# B2: UGT76G1var55: UGT76G1 variant, mutations I295M_Q342E_V366I_N409R (protein, UniProt Q6VAB4 1-458, looked up, variant I295M Q342E V366I N409R)
# UDP-glycosyltransferase 76G1: B1 UDP-glycosyltransferase 76G1 with A229E, I284T, I295M, Q342E, V366I, E389S, N409R
# B3: UGT76G1var52: UGT76G1 variant, mutations D301N_I373L_F377C_I407V (protein, UniProt Q6VAB4 1-458, looked up, variant D301N I373L F377C I407V)
# UDP-glycosyltransferase 76G1: B1 UDP-glycosyltransferase 76G1 with A229E, I284T, D301N, I373L, F377C, E389S, I407V
# B4: UGT76G1var53: UGT76G1 variant, mutations R334K_A352G_P382M_S389E (protein, UniProt Q6VAB4 1-458, looked up, variant R334K A352G P382M S389E)
# UDP-glycosyltransferase 76G1: B1 UDP-glycosyltransferase 76G1 with A229E, I284T, R334K, A352G, P382M
# B5: UGT76G1var59: UGT76G1 variant, mutations I335V_K393G_V394I_Y397Q (protein, UniProt Q6VAB4 1-458, looked up, variant I335V K393G V394I Y397Q)
# UDP-glycosyltransferase 76G1: B1 UDP-glycosyltransferase 76G1 with A229E, I284T, I335V, E389S, K393G, V394I, Y397Q
# B6: UGT76G1var60: UGT76G1 variant, mutations E231A_L243A_V279I_S357N (protein, UniProt Q6VAB4 1-458, looked up, variant E231A L243A V279I S357N)
# UDP-glycosyltransferase 76G1: B1 UDP-glycosyltransferase 76G1 with A229E, E231A, L243A, V279I, I284T, S357N, E389S
# B7: UGT76G1var71: UGT76G1 variant, mutations I295M_V300A_K393G_Q432E (protein, UniProt Q6VAB4 1-458, looked up, variant I295M V300A K393G Q432E)
# UDP-glycosyltransferase 76G1: B1 UDP-glycosyltransferase 76G1 with A229E, I284T, I295M, V300A, E389S, K393G, Q432E
# B8: UGT76G1var56: UGT76G1 variant, mutations L246F_A352G_S357N_Q432E (protein, UniProt Q6VAB4 1-458, looked up, variant L246F A352G S357N Q432E)
# UDP-glycosyltransferase 76G1: B1 UDP-glycosyltransferase 76G1 with A229E, L246F, I284T, A352G, S357N, E389S, Q432E
# B9: UGT76G1var64: UGT76G1 variant, mutations F22L_A239I_R334H_I407V (protein, UniProt Q6VAB4 1-458, looked up, variant F22L A239I R334H I407V)
# UDP-glycosyltransferase 76G1: B1 UDP-glycosyltransferase 76G1 with F22L, A229E, A239I, I284T, R334H, E389S, I407V
# B10: UGT76G1var58: UGT76G1 variant, mutations S357C_S375M_N409R_Q425E (protein, UniProt Q6VAB4 1-458, looked up, variant S357C S375M N409R Q425E)
# UDP-glycosyltransferase 76G1: B1 UDP-glycosyltransferase 76G1 with A229E, I284T, S357C, S375M, E389S, N409R, Q425E
# B11: UGT76G1var65: UGT76G1 variant, mutations A33G_A239V_P382M_Q425E (protein, UniProt Q6VAB4 1-458, looked up, variant A33G A239V P382M Q425E)
# UDP-glycosyltransferase 76G1: B1 UDP-glycosyltransferase 76G1 with A33G, A229E, A239V, I284T, P382M, E389S, Q425E
# B12: UGT76G1var73: UGT76G1 variant, mutations F22Y_D301N_R334H_Q342E_V396F (protein, UniProt Q6VAB4 1-458, looked up, variant F22Y D301N R334H Q342E V396F)
# UDP-glycosyltransferase 76G1: B1 UDP-glycosyltransferase 76G1 with F22Y, A229E, I284T, D301N, R334H, Q342E, E389S, V396F
# B13: UGT76G1var3: UGT76G1 variant, mutations I295T_S357C_V366I (protein, UniProt Q6VAB4 1-458, looked up, variant I295T S357C V366I)
# UDP-glycosyltransferase 76G1: B1 UDP-glycosyltransferase 76G1 with A229E, I284T, I295T, S357C, V366I, E389S
# B14: UGT76G1var49: UGT76G1 variant, mutations F41L_Q266E_T284I_Y397Q (protein, UniProt Q6VAB4 1-458, looked up, variant F41L Q266E T284I Y397Q)
# UDP-glycosyltransferase 76G1: B1 UDP-glycosyltransferase 76G1 with F41L, A229E, Q266E, E389S, Y397Q
# B15: UGT76G1var70: UGT76G1 variant, mutations E224A_I295T_V300A_G348P (protein, UniProt Q6VAB4 1-458, looked up, variant E224A I295T V300A G348P)
# UDP-glycosyltransferase 76G1: B1 UDP-glycosyltransferase 76G1 with E224A, A229E, I284T, I295T, V300A, G348P, E389S
# B16: UGT76G1var2: UGT76G1 variant, mutations S274G_T284I_L379G (protein, UniProt Q6VAB4 1-458, looked up, variant S274G T284I L379G)
# UDP-glycosyltransferase 76G1: B1 UDP-glycosyltransferase 76G1 with A229E, S274G, L379G, E389S
# B17: UGT76G1var48: UGT76G1 variant, mutations V394I_Y397E_Q432E (protein, UniProt Q6VAB4 1-458, looked up, variant V394I Y397E Q432E)
# UDP-glycosyltransferase 76G1: B1 UDP-glycosyltransferase 76G1 with A229E, I284T, E389S, V394I, Y397E, Q432E
# B18: UGT76G1var62: UGT76G1 variant, mutations L243P_P272A_V394I_V396F (protein, UniProt Q6VAB4 1-458, looked up, variant L243P P272A V394I V396F)
# UDP-glycosyltransferase 76G1: B1 UDP-glycosyltransferase 76G1 with A229E, L243P, P272A, I284T, E389S, V394I, V396F
# B19: UGT76G1var69: UGT76G1 variant, mutations S274G_I295T_I335V_L379A (protein, UniProt Q6VAB4 1-458, looked up, variant S274G I295T I335V L379A)
# UDP-glycosyltransferase 76G1: B1 UDP-glycosyltransferase 76G1 with A229E, S274G, I284T, I295T, I335V, L379A, E389S
# B20: UGT76G1var54: UGT76G1 variant, mutations E229A_T284L_R334K_Q342E (protein, UniProt Q6VAB4 1-458, looked up, variant E229A T284L R334K Q342E)
# UDP-glycosyltransferase 76G1: B1 UDP-glycosyltransferase 76G1 with I284L, R334K, Q342E, E389S
# B21: UGT76G1var61: UGT76G1 variant, mutations I43V_F265I_Q266S_L379A (protein, UniProt Q6VAB4 1-458, looked up, variant I43V F265I Q266S L379A)
# UDP-glycosyltransferase 76G1: B1 UDP-glycosyltransferase 76G1 with I43V, A229E, F265I, Q266S, I284T, L379A, E389S
# B22: UGT76G1var57: UGT76G1 variant, mutations S241I_T263S_L379G_A385T (protein, UniProt Q6VAB4 1-458, looked up, variant S241I T263S L379G A385T)
# UDP-glycosyltransferase 76G1: B1 UDP-glycosyltransferase 76G1 with A229E, S241I, T263S, I284T, L379G, A385T, E389S
# B23: UGT76G1var72: UGT76G1 variant, mutations T284L_D301N_K303G_S375R (protein, UniProt Q6VAB4 1-458, looked up, variant T284L D301N K303G S375R)
# UDP-glycosyltransferase 76G1: B1 UDP-glycosyltransferase 76G1 with A229E, I284L, D301N, K303G, S375R, E389S
# B24: UGT76G1var50: UGT76G1 variant, mutations F22Y_V310I_S375M_F377C (protein, UniProt Q6VAB4 1-458, looked up, variant F22Y V310I S375M F377C)
# UDP-glycosyltransferase 76G1: B1 UDP-glycosyltransferase 76G1 with F22Y, A229E, I284T, V310I, S375M, F377C, E389S
# B25: UGT76G1var67: UGT76G1 variant, mutations E224D_F314S_S375R_Y397E (protein, UniProt Q6VAB4 1-458, looked up, variant E224D F314S S375R Y397E)
# UDP-glycosyltransferase 76G1: B1 UDP-glycosyltransferase 76G1 with E224D, A229E, I284T, F314S, S375R, E389S, Y397E
# B26: UGT76G1var51: UGT76G1 variant, mutations K303G_S357C_S389E_V396F (protein, UniProt Q6VAB4 1-458, looked up, variant K303G S357C S389E V396F)
# UDP-glycosyltransferase 76G1: B1 UDP-glycosyltransferase 76G1 with A229E, I284T, K303G, S357C, V396F
# B27: UGT76G1var66: UGT76G1 variant, mutations F265L_V310I_V366I_A385T (protein, UniProt Q6VAB4 1-458, looked up, variant F265L V310I V366I A385T)
# UDP-glycosyltransferase 76G1: B1 UDP-glycosyltransferase 76G1 with A229E, F265L, I284T, V310I, V366I, A385T, E389S
# B28: UGT76G1var63: UGT76G1 variant, mutations F314S_R334H_Q342K_L379G (protein, UniProt Q6VAB4 1-458, looked up, variant F314S R334H Q342K L379G)
# UDP-glycosyltransferase 76G1: B1 UDP-glycosyltransferase 76G1 with A229E, I284T, F314S, R334H, Q342K, L379G, E389S
# B29: UGT76G1var68: UGT76G1 variant, mutations Q342K_G348P_I373L_Y397E (protein, UniProt Q6VAB4 1-458, looked up, variant Q342K G348P I373L Y397E)
# UDP-glycosyltransferase 76G1: B1 UDP-glycosyltransferase 76G1 with A229E, I284T, Q342K, G348P, I373L, E389S, Y397E
# Assay: Directed evolution of UGT76G1, Rebaudioside D to Rebaudioside M, round 1 (Example 26)
# Format: biochemical
# Conditions: 100 μL fresh lysate, 0.5 mM Rebaudioside D, 30° C., pH 7.2
# Protocol: Lysis was performed by addition of Bugbuster® Master mix (Novagen®) to the thawed cells and the lysate was recovered by centrifugation. Activity tests were performed with 100 μL of fresh lysate that was added to a solution of Rebaudioside D (final concentration 0.5 mM), MgCl2 (final concentration 3 mM) and UDP-Glucose (final concentration 2.5 mM) in 50 mM phosphate buffer pH 7.2.
# The reaction was allowed to run at 30° C. and samples were taken after 2, 4, 7 and 24 h. to determine conversion and initial rate by HPLC (CAD detection) using the analytical method that was described above for the transformation of Rebaudioside D to Rebaudioside M. The results are depicted in the following table.
Molecule,conversion Reb D to Reb M after 24 h,initial rate
B1,4.8%,2.7E+06 Reb M area/min
B2,1.0%,2.2E+05 Reb M area/min
B3,,4.6E+06 Reb M area/min
B4,9.3%,4.1E+06 Reb M area/min
B5,33.0%,2.7E+07 Reb M area/min
B6,0.5%,9.5E+04 Reb M area/min
B7,,2.1E+07 Reb M area/min
B8,0.4%,4.1E+04 Reb M area/min
B9,0.3%,3.1E+04 Reb M area/min
B10,7.5%,2.2E+06 Reb M area/min
B11,1.2%,3.3E+05 Reb M area/min
B12,0.8%,8.7E+05 Reb M area/min
B13,9.6%,1.6E+06 Reb M area/min
B14,2.6%,1.1E+06 Reb M area/min
B15,24.0%,8.4E+06 Reb M area/min
B16,,4.7E+07 Reb M area/min
B17,,3.8E+07 Reb M area/min
B18,0.1%,3.4E+04 Reb M area/min
B19,,8.3E+06 Reb M area/min
B20,0.7%,4.3E+05 Reb M area/min
B21,6.4%,2.0E+06 Reb M area/min
B22,0.8%,1.5E+05 Reb M area/min
B23,,9.1E+06 Reb M area/min
B24,1.9%,7.9E+05 Reb M area/min
B25,−2.1%,−5.6E+05 Reb M area/min
B26,,9.5E+06 Reb M area/min
B27,0.8%,3.7E+05 Reb M area/min
B28,3.4%,1.2E+06 Reb M area/min
B29,−1.4%,−1.1E+05 Reb M area/min
